Data taken from IntAct's records for PubMed 15448699.

B1: Protein SIC1 (Saccharomyces cerevisiae), P38634 (parent)
chain: MTPSTPPRSRGTRYLAQPSGNTSSSALMQGQKTPQKPSQNLVPVTPSTTKSFKNAPLLAPPNSNMGMTSPFNGLTSPQRSPFPKSSVKRTLFQFESHDNGTVREEQEPLGRVNRILFPTQQNVDIDAAEEEEEGEVLLPPSRPTSARQLHLSLERDEFDQTHRKKIIKDVPGTPSDKVITFELAKNWNNNSPKNDARSQESEDEEDIIINPVRVGKNPFASDELVTQEIRNERKRAMLRENPDIEDVITYVNKKGEVVEKRRLTDEEKRRFKPKALFQSRDQEH
partner: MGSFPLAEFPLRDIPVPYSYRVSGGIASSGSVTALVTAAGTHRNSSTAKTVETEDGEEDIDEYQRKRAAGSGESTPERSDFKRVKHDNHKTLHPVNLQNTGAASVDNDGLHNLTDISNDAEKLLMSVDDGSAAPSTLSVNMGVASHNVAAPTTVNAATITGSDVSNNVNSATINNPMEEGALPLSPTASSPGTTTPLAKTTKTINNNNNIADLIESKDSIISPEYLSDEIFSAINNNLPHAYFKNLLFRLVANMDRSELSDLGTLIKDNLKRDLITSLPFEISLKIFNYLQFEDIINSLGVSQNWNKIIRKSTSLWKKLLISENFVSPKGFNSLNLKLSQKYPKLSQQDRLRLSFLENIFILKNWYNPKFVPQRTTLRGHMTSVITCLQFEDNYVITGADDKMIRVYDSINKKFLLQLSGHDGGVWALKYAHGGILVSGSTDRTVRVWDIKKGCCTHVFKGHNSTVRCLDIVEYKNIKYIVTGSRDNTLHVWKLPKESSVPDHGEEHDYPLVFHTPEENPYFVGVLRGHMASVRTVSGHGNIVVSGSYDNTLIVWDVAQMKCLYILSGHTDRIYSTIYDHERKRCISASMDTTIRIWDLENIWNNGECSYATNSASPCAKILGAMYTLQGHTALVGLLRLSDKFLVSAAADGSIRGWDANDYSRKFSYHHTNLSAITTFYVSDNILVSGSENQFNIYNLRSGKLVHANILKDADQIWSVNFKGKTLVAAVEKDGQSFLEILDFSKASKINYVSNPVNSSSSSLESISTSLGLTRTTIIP
B2: Protein SIC1 (Saccharomyces cerevisiae), P38634 (parent)
chain: B1 chain
partner: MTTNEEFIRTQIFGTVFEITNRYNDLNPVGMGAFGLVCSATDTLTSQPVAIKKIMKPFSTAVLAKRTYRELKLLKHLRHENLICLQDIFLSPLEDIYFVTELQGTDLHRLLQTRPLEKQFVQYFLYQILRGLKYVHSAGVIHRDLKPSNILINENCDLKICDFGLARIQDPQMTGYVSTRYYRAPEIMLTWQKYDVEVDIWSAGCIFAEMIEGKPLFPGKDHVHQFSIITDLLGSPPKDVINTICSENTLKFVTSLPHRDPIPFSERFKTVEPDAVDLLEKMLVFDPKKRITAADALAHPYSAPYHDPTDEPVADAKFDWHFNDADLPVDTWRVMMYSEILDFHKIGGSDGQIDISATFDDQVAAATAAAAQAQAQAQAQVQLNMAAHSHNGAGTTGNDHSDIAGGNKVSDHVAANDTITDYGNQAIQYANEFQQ

Variants of: B1
Conditions: with cdc4_yeast CDC4, P07834

Variant	effect of a mutation on the interaction
MTPSTPPRSRGTRYLAQPSGNTSSSALMQGQKTPQKPSQNLVPVTPSTTKSFKNAPLLAPPNSNMGMTSPFNGLTSPQRSPFPKSSVKRTLFQFESHDNGTVREEQEPLGRVNRILFPTQQNVDIDAAEEEEEGEVLLPPSRPTSARQLHLSLERDEFDQTHRKKIIKDVPGEPSDKVITFELAKNWNNNSPKNDARSQESEDEEDIIINPVRVGKNPFASDELVTQEIRNERKRAMLRENPDIEDVITYVNKKGEVVEKRRLTDEEKRRFKPKALFQSRDQEH [T173E]	decreasing interaction

Variants of: B2
Conditions: with hog1_yeast HOG1, P32485

Variant	effect of a mutation on the interaction
MTPSTPPRSRGTRYLAQPSGNTSSSALMQGQKTPQKPSQNLVPVTPSTTKSFKNAPLLAPPNSNMGMTSPFNGLTSPQRSPFPKSSVKRTLFQFESHDNGTVREEQEPLGRVNRILFPTQQNVDIDAAEEEEEGEVLLPPSRPTSARQLHLSLERDEFDQTHRKKIIKDVPGEPSDKVITFELAKNWNNNSPKNDARSQESEDEEDIIINPVRVGKNPFASDELVTQEIRNERKRAMLRENPDIEDVITYVNKKGEVVEKRRLTDEEKRRFKPKALFQSRDQEH [T173E]	disrupting interaction
